Holding throughout (settings): 20 nM; 72 h
Series [1] concerns MCF10A. As to the kind of experiment: one-nucleolus phenotype percent effect (relative to siNT 0% and siNOL11 100%); higher = more cells with one nucleolus (ribosome biogenesis inhibition). The procedure:
(§1)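 After 72 h, cells were fixed and stained with Hoechst and anti-fibrillarin, and nucleoli per nucleus were counted with CellProfiler. Values are plate-adjusted percent effect for the one-nucleolus and 5+ nucleoli phenotypes, normalised to siNT (0%) and to the positive controls siNOL11 or siKIF11 (100%), as the mean of biological triplicates. Percent viability is the nuclei count relative to siNT.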

The test system of series [2] is MCF10A. The series can be described thus: percent viability (nuclei count relative to siNT); higher = more viable cells. The procedure: as §1
In series [3] the test system is MCF10A. As to the kind of experiment: 5+ nucleoli phenotype percent effect (relative to siNT 0% and siKIF11 100%); higher = more cells with five or more nucleoli. The procedure:
as §1

As to AAGGGGCUGGGGGAGCACA [hsa-miR-6085], in the series on MCF10A [1], the “one-nucleolus phenotype percent effect” value came out at 33.3%. Further, the percent viability in the series with MCF10A [2] was 22%. Also, in the series on MCF10A [3], the “5+ nucleoli phenotype percent effect” value was -17.6%.

“CCGGGAGAAGGAGGUGGCCUGG [hsa-miR-6746-5p]”: the “one-nucleolus phenotype percent effect” value in the series with MCF10A [1] was -15.9%. Also, in the series on MCF10A [2], the percent viability came out at 50.3%. For the same sequence, in the series on MCF10A [3], the “5+ nucleoli phenotype percent effect” value was 61.4%.

“UGCAUCACAGCCUUUGGCCCUAG [hsa-miR-7112-3p]”: the “one-nucleolus phenotype percent effect” value in the series on MCF10A [1] is -28%. For the same sequence, in the series with MCF10A [2], the percent viability turned out to be 45.8%. Also, the “5+ nucleoli phenotype percent effect” value with MCF10A [3] worked out at 45.4%.

On to “UGGGGUGCCCACUCCGCAAGUU [hsa-miR-4664-5p]”, for which the “one-nucleolus phenotype percent effect” value in the series on MCF10A [1] stood at 23.6%. For the same sequence, the percent viability in the series on MCF10A [2] stood at 9.8%. Further, in the series with MCF10A [3], the “5+ nucleoli phenotype percent effect” value is -17.8%.

In the case of GGGGUUCCUGGGGAUGGGAUUU [hsa-miR-23a-5p], in the series with MCF10A [1], the “one-nucleolus phenotype percent effect” value was -14%. Also, the percent viability with MCF10A [2] worked out at 103%. Also, in the series with MCF10A [3], the “5+ nucleoli phenotype percent effect” value is 40.3%.

With CAAAGUGAUGAGUAAUACUGGCUG [hsa-miR-3609], the “one-nucleolus phenotype percent effect” value in the series with MCF10A [1] is -12.6%. In addition, the percent viability in the series with MCF10A [2] came to 98.3%. The “5+ nucleoli phenotype percent effect” value in the series with MCF10A [3] was 2.01%.

As for GGAGGUUGGGAAGGGCAGAG [hsa-miR-6086], in the series with MCF10A [1], the “one-nucleolus phenotype percent effect” value was -8.13%. The percent viability with MCF10A [2] was 69.1%. Besides, the “5+ nucleoli phenotype percent effect” value in the series on MCF10A [3] amounted to 0.449%.

As for AGAGGCUUUGUGCGGAUACGGGG [hsa-miR-3188], the “one-nucleolus phenotype percent effect” value in the series with MCF10A [1] is 33.1%. Also, the percent viability with MCF10A [2] is 29.7%. The “5+ nucleoli phenotype percent effect” value in the series on MCF10A [3] is -26%.

Consider GUGAGUCAGGGUGGGGCUGG [hsa-miR-937-5p], for which the “one-nucleolus phenotype percent effect” value in the series on MCF10A [1] stood at 19.2%. Moreover, the percent viability with MCF10A [2] was found to be 41.5%. Moreover, in the series on MCF10A [3], the “5+ nucleoli phenotype percent effect” value is -10.1%.

As for CUCAGUGACUCAUGUGC [hsa-miR-4276], the “one-nucleolus phenotype percent effect” value with MCF10A [1] is 17.5%. Besides, the percent viability with MCF10A [2] amounted to 72.6%. Also, in the series with MCF10A [3], the “5+ nucleoli phenotype percent effect” value was -21.3%.

On to GAAUGUUGCUCGGUGAACCCCU [hsa-miR-409-3p], for which the “one-nucleolus phenotype percent effect” value with MCF10A [1] came to 9.98%. In addition, the percent viability with MCF10A [2] was 35.9%. Moreover, the “5+ nucleoli phenotype percent effect” value with MCF10A [3] was -31.1%.

With GAGCUUGGAUGAGCUGGGCUGA [hsa-miR-4538], the “one-nucleolus phenotype percent effect” value in the series with MCF10A [1] amounted to 14.4%. Further, in the series on MCF10A [2], the percent viability amounted to 25.3%. In addition, the “5+ nucleoli phenotype percent effect” value in the series with MCF10A [3] was -29.6%.

In the case of AGGCACGGUGUCAGCAGGC [hsa-miR-564], the “one-nucleolus phenotype percent effect” value in the series with MCF10A [1] is 11.4%. Moreover, the percent viability in the series on MCF10A [2] is 67.8%. Also, in the series with MCF10A [3], the “5+ nucleoli phenotype percent effect” value was -12.9%.

In the case of UCGAGGAGCUCACAGUCUAGU [hsa-miR-151a-5p], in the series with MCF10A [1], the “one-nucleolus phenotype percent effect” value is -6%. Further, the percent viability with MCF10A [2] stood at 86.8%. In addition, in the series on MCF10A [3], the “5+ nucleoli phenotype percent effect” value is 9.84%.

AAUCAUUCACGGACAACACUU [hsa-miR-382-3p]: the “one-nucleolus phenotype percent effect” value with MCF10A [1] was -25.4%. In addition, the percent viability in the series with MCF10A [2] amounted to 97.5%. Also, the “5+ nucleoli phenotype percent effect” value in the series on MCF10A [3] is 36.3%.

As for CAAAGAAUUCUCCUUUUGGGCU [hsa-miR-186-5p], in the series on MCF10A [1], the “one-nucleolus phenotype percent effect” value is -14.6%. Further, the percent viability in the series on MCF10A [2] was found to be 59.3%. For the same sequence, the “5+ nucleoli phenotype percent effect” value in the series on MCF10A [3] amounted to 42.9%.

As for “CAAAGCGCUUCUCUUUAGAGUGU [hsa-miR-518c-3p]”, the “one-nucleolus phenotype percent effect” value in the series with MCF10A [1] worked out at 37.7%. For the same sequence, the percent viability in the series on MCF10A [2] was 44.9%. Also, the “5+ nucleoli phenotype percent effect” value in the series with MCF10A [3] was -26.1%.

As for CGGGCGUGGUGGUGGGGGUG [hsa-miR-1268b], the “one-nucleolus phenotype percent effect” value in the series on MCF10A [1] was determined as 8.5%. In the series with MCF10A [2], the percent viability worked out at 36.5%. Also, the “5+ nucleoli phenotype percent effect” value with MCF10A [3] was 35.6%.

Consider “UUUAGAUUGAACAUGAAGUUAG [hsa-miR-4760-5p]”, for which, in the series on MCF10A [1], the “one-nucleolus phenotype percent effect” value is -20.8%. Further, the percent viability with MCF10A [2] is 83.5%. In addition, in the series on MCF10A [3], the “5+ nucleoli phenotype percent effect” value was determined as 46.3%.

In the case of UGAGUGAUUGAUAGCUAUGUUC [hsa-miR-4765], the “one-nucleolus phenotype percent effect” value in the series with MCF10A [1] is -19.8%. Further, the percent viability in the series with MCF10A [2] turned out to be 52.9%. Besides, in the series with MCF10A [3], the “5+ nucleoli phenotype percent effect” value was 24.9%.

Take CGGGCUGUCCGGAGGGGUCGGCU [hsa-miR-4741]: the “one-nucleolus phenotype percent effect” value in the series with MCF10A [1] was -21.4%. The percent viability with MCF10A [2] turned out to be 65.1%. Moreover, the “5+ nucleoli phenotype percent effect” value in the series with MCF10A [3] amounted to 42.5%.

As for UGAGCCGAGCUGAGCUUAGCUG [hsa-miR-4537], the “one-nucleolus phenotype percent effect” value with MCF10A [1] was -6.98%. For the same sequence, the percent viability with MCF10A [2] stood at 73.5%. Besides, in the series on MCF10A [3], the “5+ nucleoli phenotype percent effect” value was -4.47%.

As to CUAUGGCGAGACUGGCAUGUACUC [hsa-miR-8074], the “one-nucleolus phenotype percent effect” value in the series on MCF10A [1] is -12.8%. Further, the percent viability with MCF10A [2] was found to be 110%. In addition, the “5+ nucleoli phenotype percent effect” value in the series on MCF10A [3] was 26.4%.

As to “UAAAACUUUAAGUGUGCCUAGG [hsa-miR-5582-3p]”, the “one-nucleolus phenotype percent effect” value with MCF10A [1] was -11.3%. The percent viability in the series with MCF10A [2] amounted to 72.9%. The “5+ nucleoli phenotype percent effect” value in the series with MCF10A [3] worked out at 7.07%.

These data come from the supplement of paper PMC10899765.
